In patent publication US20260250411A1 (ALTRUBIO, published 2026):

Assays:
[1] = molecular target: T1, human PSGL-1 (extracellular domain) recombinant protein (SinoBiological, 13863-H08H) (human, UniProt Q14242 42-320); assay: ELISA, plate coated with recombinant PSGL-1 at lower density (0.05 pg/mL as printed), FIG. 3B
T1 construct: extracellular domain; Bought protein; also called recombinant PSGL-1; hPSGL-1 extracellular domain antigen
T1 sequence (looked up): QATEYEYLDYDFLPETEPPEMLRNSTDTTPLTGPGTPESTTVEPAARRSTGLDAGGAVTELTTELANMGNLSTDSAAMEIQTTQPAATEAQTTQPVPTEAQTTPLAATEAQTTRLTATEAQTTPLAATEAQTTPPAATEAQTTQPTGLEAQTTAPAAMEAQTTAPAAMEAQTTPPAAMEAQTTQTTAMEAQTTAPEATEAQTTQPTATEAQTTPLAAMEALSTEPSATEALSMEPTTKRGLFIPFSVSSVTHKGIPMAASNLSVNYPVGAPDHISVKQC
Experimental: (§1) 96-well NUNC-Immuno plates (Thermo Fisher, Cat #442404) were coated with 100 μL per well of 0.5, 0.05, or 0.03 pg/mL human PSGL-1 (extracellular domain) recombinant protein (SinoBiological, 13863-H08H) overnight at 4° C. Plates were then washed with Wash Buffer (1×PBS with 0.05% Tween 20, pH 7.4) and blocked with 0.5% (w/v) BSA-PBS for 60 min at room temperature on a plate shaker set to 300 rpm. After blocking, 100 μL of serial dilutions of 15A7H-IgM, 15A7H-IgG4, and controls at concentration range of 5000 pM-4.89 pM were added to the wells and incubated at room temperature for 1 hour. […] After 5 final washes using Wash Buffer, the plates were read out using TMB substrate (followed the instruction manual of BD OptEIA. Cat. 555214) by incubating the wells with […] each of freshly prepared TMB Working Solution for 5 min followed by the addition of sulfuric acid to stop the reaction. Finally, the data of absorbance at 450 nm (OD450 nm) were collected on an ELISA plate reader and analyzed with SoftMax using a 4-parameter logistic model.

[2] = molecular target: T1, human PSGL-1 (extracellular domain) …; assay: ELISA, plate coated with recombinant PSGL-1 at high density (0.5 µg/mL), FIG. 3A
Experimental: as §1

[3] = molecular target: T1, human PSGL-1 (extracellular domain) …; assay: ELISA, plate coated with recombinant PSGL-1 at lower density (0.03 pg/mL as printed), FIG. 3C
Experimental: as §1

[4] = molecular target: T2, human PSGL-1 on cells (Sp2/0-hPSGL-1 transfectants; activated human primary T cells) (human, UniProt Q14242 42-412); assay: cell-based or functional assay
T2 sequence (looked up): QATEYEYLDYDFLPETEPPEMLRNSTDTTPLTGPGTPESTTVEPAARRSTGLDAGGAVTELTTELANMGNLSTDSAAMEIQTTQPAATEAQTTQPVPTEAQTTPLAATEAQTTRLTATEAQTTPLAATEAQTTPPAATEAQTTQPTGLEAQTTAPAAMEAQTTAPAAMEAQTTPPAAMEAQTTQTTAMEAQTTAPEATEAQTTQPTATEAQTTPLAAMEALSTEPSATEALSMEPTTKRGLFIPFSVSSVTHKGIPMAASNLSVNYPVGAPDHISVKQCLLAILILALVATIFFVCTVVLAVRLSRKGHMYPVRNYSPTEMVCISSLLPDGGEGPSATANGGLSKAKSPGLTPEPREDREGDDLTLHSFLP

B1: 15A7H-IgG4 (antibody, V domains shown)
VH: EVQLVESGGGLVQPGGSLRLSCAASGFTFSSFGMHWVRQAPGKGLEWVAYINGGSSTIFYANAVKGRFTISRDNAKNTLYLQMNSLRAEDTAVYYCARYASYGGGAMDYWGQGTLVTVSS
VL: DIQMTQSPSSLSASVGDRVTITCRSSQSIVHNDGNTYFEWYQQKPGKAPKLLIYKVSNRFSGVPSRFSGSGSGTHFTLTISSLQPEDFATYYCFQGSYVPLTFGQGTKVEIKR
notes: Bivalent IgG4 antibody described in WO 2012/174001; In some functional assays it was used with a mouse anti-human IgG Fc-gamma cross-linker (CL); also called anti-PSGL-1 bivalent mAb 15A7H; 15A7H-IgG4 + CL (when used with cross-linker)
[1]
  EC50: 0.0974 nM
[2]
  EC50: 0.141 nM
[3]
  EC50: 0.12 nM

B2: 15A7H-IgM (antibody)
heavy: EVQLVESGGGLVQPGGSLRLSCAASGFTFSSFGMHWVRQAPGKGLEWVAYINGGSSTIFYANAVKGRFTISRDNAKNTLYLQMNSLRAEDTAVYYCARYASYGGGAMDYWGQGTLVTVSSGSASAPTLFPLVSCENSPSDTSSVAVGCLAQDFLPDSITFSWKYKNNSDISSTRGFPSVLRGGKYAATSQVLLPSKDVMQGTDEHVVCKVQHPNGNKEKNVPLPVIAELPPKVSVFVPPRDGFFGNPRKSKLICQATGFSPRQIQVSWLREGKQVGSGVTTDQVQAEAKESGPTTYKVTSTLTIKESDWLSQSMFTCRVDHRGLTFQQNASSMCVPDQDTAIRVFAIPPSFASIFLTKSTKLTCLVTDLTTYDSVTISWTRQNGEAVKTHTNISESHPNATFSAVGEASICEDDWNSGERFTCTVTHTDLPSPLKQTISRPKGVALHRPDVYLLPPAREQLNLRESATITCLVTGFSPADVFVQWMQRGQPLSPEKYVTSAPMPEPQAPGRYFAHSILTVSEEEWNTGETYTCVVAHEALPNRVTERTVDKSTGKPTLYNVSLVMSDTAGTCY
light: DIQMTQSPSSLSASVGDRVTITCRSSQSIVHNDGNTYFEWYQQKPGKAPKLLIYKVSNRFSGVPSRFSGSGSGTHFTLTISSLQPEDFATYYCFQGSYVPLTFGQGTKVEIKRTVAAPSVFIFPPSDEQLKSGTASVVCLLNNFYPREAKVQWKVDNALQSGNSQESVTEQDSKDSTYSLSSTLTLSKADYEKHKVYACEVTHQGLSSPVTKSFNRGEC
chain: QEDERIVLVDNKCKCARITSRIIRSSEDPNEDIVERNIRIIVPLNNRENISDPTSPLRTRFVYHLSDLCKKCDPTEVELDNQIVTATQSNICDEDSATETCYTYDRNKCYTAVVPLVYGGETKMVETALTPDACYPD
notes: also called 15A7H-IgM antibody; pentameric 15A7H-IgM
[1]
  EC50: 0.0459 nM
[2]
  EC50: 0.0926 nM
[4]
  EC50 (nM) of apoptosis of activated T cells, Donor 1: 0.0177 nM
  EC50 (nM) of apoptosis of activated T cells, Donor 2: 0.0152 nM
  EC50 (nM) of apoptosis of activated T cells, Donor 3: 0.0096 nM
  EC50 (µg/mL) of apoptosis of activated T cells, Donor 1: 0.0156 µg/mL
  EC50 (µg/mL) of apoptosis of activated T cells, Donor 2: 0.0134 µg/mL
  EC50 (µg/mL) of apoptosis of activated T cells, Donor 3: 0.00844 µg/mL
[3]
  EC50: 0.0396 nM
